Source: patent US20230183329A1, “COMBINATION THERAPY FOR TTR AMYLOIDOSIS” (Neurimmune AG, priority 2020, published 2023)

Legend:
[1] = cited from earlier work
mis.WT-TTR aggregates = target: T1, mis.WT-TTR aggregates (Homo sapiens, UniProt P02766); assay: Direct ELISA, NI-301.37F1 binding to amyloid wtTTR aggregates in presence of TTR tetramer stabilizers; details: for EC50 value of antibody binding to TTR amyloid: versus vehicle
T1 construct: Plasma-purified wtTTR was provided as a solution at a concentration of 2 mg/mL in PBS buffer; from tissue; host or cells: human plasma
Description: 96 well microplates were coated for 1 hour at 37° C. with mis.WT-TTR aggregates diluted to a concentration of 10 μg/mL in PBS buffer pH7.4. Non-specific binding sites were blocked for 1 hour at room temperature (RT) with a blocking buffer containing 2% bovine serum albumin (BSA) and 0.1% tween-20 in PBS buffer. Human NI-301.37F1 antibody was diluted in duplicates to the indicated concentrations in PBS supplemented with tafamidis or diflunisal at 10 μg/mL or corresponding concentration of vehicle buffer, and incubated overnight at 4° C. Binding was determined using an anti-human IgG antibody conjugated with horseradish peroxidase (HRP), followed by measurement of HRP activity in a standard colorimetric assay.
Data were analyzed with the Prism software from GraphPad. EC50 values were estimated using non-linear regression of individual data points using log(agonist) versus response model with variable slope. Data fitting was performed with the least square regression method.
For the assessment of the binding affinity of anti-TTR antibody in the presence of TTR tetramer stabilizer direct ELISA and EC50 determination has been substantially performed in Example 3 of WO 2015/092077 A1. ELISA plates were coated for 1 h at 37° C. with amyloid wtTTR aggregates and blocked for 1 h at room temperature with blocking buffer (PBS pH 7.4, 1% BSA and 0.1% polysorbate 20).
Tafamidis and diflunisal were dissolved in vehicle (80% PBS pH 7.4, 10% ethanol, 10% polysorbate 80) and antibody NI-301.37F1 dilution series were prepared with tafamidis or diflunisal at a final concentration of 10 μg/mL or a corresponding volume of the vehicle. The concentration of 10 μg/mL is […] the maximal peak concentration in patients treated with tafamidis at 80 mg per day (˜6 μg/mL). NI-301.37F1 dilution series were incubated in the ELISA plates overnight at 4° C., and, after washes, NI-301.37F1 was detected using an horseradish peroxidase (HRP)-coupled anti-human IgG antibody and standard detection methods. Data were analyzed with the Prism software from GraphPad. […]

[2] = target: T2, soluble ATTR oligomers (mis.WT-TTR) (Homo sapiens, UniProt P02766); assay: BLI binding kinetic assay, soluble ATTR oligomers; details: in presence or absence of AG10 or diflunisal at 5 μg/mL
T2 construct: Plasma-purified wtTTR was provided as a solution at a concentration of 2 mg/mL in PBS buffer; from tissue; host or cells: human plasma
Description: (§1) The antibody NI-301.37F1 was loaded on anti-human capture sensors at 5 μg/mL in PBS for 5 min at 25° C. The binding assay was performed with soluble WT-TTR amyloid aggregates and tetrameric WT-TTR. A baseline was performed in 1× kinetic buffer for 3 min, the association was measured for 10 min and the dissociation for another 10 min in 1× kinetic buffer, all steps performed at 25° C. with shaking at 1000 rpm. A reference sample was also included consisting in 1× kinetic buffer.
(§2) Data were analyzed in ForteBio Data Analysis 8.2 software, using reference subtraction and interstep correction between association and dissociation.
NI-301.37F1 absent binding to TTR tetramers was investigated in presence and absence of TTR stabilizers using BLI. Soluble ATTR oligomers were included in this experiment to serve as positive controls.
NI-301.37F1 binding to ATTR oligomers and TTR tetramers was evaluated in presence of the TTR stabilizers AG10 and diflunisal at 5 μg/mL, or in presence of corresponding vehicle buffer using BLI.

[3] = target: T3, TTR tetramers (tetr.WT-TTR) (Homo sapiens, UniProt P02766); assay: BLI binding kinetic assay, TTR tetramers
T3 construct: Plasma-purified wtTTR was provided as a solution at a concentration of 2 mg/mL in PBS buffer; from tissue; host or cells: human plasma
Description: as §1, §2
NI-301.37F1 absent binding to TTR tetramers was investigated in presence and absence of TTR stabilizers using BLI. Soluble ATTR oligomers were included in this experiment to serve as positive controls. […]

misfolded TTR = misfolded TTR (Homo sapiens, UniProt P02766); details: cited from earlier work

Molecule: O=C(O)c1ccc2nc(-c3cc(Cl)cc(Cl)c3)oc2c1 [tafamidis]
- mean half-life ([1]; human): approximately 49 hours
- maximal peak concentration ([1]; patients treated with tafamidis at 80 mg per day): ~6 µg/mL

B1: NI-301.37F1: human-derived monoclonal anti-TTR antibody binding epitope TTR41-45, selective for misfolded TTR, disclosed in WO 2015/092077 A1 (antibody, V domains shown)
VH: QVQLQESGPGLVKPSETLSLTCSVSGGSIISRSSYWGWIRQPPGKGLEWIGGIYHSGNTYDNPSLKSRLTMSVDTSKNQFSLNLRSVTAADTAVYYCARIVPGGDAFDIWGQGTMVTVSS
VL: DIQMTQSPSSLSASVGDRVTIACRASQSVGTYLNWYQQKRGKAPKLLIFAASSLQSGVPSRFSGSGSGTDFTLTISSLQPEDFATYYCQQSYSSPPTFGQGTKVEIK
- binding to amyloidogenic TTR (mis.WT-TTR aggregates; in the presence of TTR stabilizers tafamidis and diflunisal, 10 μg/mL): maintained
- EC50 value of antibody binding to TTR amyloid (mis.WT-TTR aggregates; in the presence of diflunisal at 10 μg/mL): increased
- EC50 value of antibody binding to TTR amyloid (mis.WT-TTR aggregates; in the presence of tafamidis at 10 μg/mL): remained substantially unaffected
- binding to ATTR oligomers in solution [2]: virtually identical
- binding to TTR-diflunisal complexes ([3]; TTR tetramers in presence of diflunisal): did not bind
- binding to TTR-tafamidis complexes ([3]; TTR tetramers in presence of tafamidis): did not bind
- binding selectivity (absent binding to TTR tetramers) ([3]; in presence of TTR stabilizers (conclusion)): maintained
- binding to TTR tetramers in solution ([3]; no stabilizer): did not bind
- binding affinity to misfolded TTR (misfolded TTR): sub-nanomolar range
